B1: wild-type PAP257–273 [human] / itself (parent)
chain: RLQGGVLVNEILNHMKR

Variants of: B1
Experiment: ThT assay (amyloid fibril formation, self-assembly)
Conditions: with itself; peptide 3 mg/ml, agitated at 1400 rpm at 37 °C for 48 h; parent: 5.5e+03; read off a plot

Row | Variant | response
1 | RLQGGVLANEILNHMKR | 200
2 | RLQGGVLVNEIANHMKR | 11000
3 | RLQGGVLVNEILNHMKA | 8300
4 | RLQGGVLVNEILNHAKR | 1400
5 | RAQGGVLVNEILNHMKR | 7800
6 | RLAGGVLVNEILNHMKR | 5100

— article PMC6048764, “Myricetin antagonizes semen-derived enhancer of viral infection (SEVI) formation and influences its infection-enhancing activity” (Retrovirology, 2018)
